US8933202B2, “AXL antibodies” (U3 Pharma GmbH, priority 2007, dated 2015)

Tests used:
AXL = biological target: T1, AXL (Homo sapiens, UniProt P30530); assay: AXL receptor tyrosine phosphorylation ELISA; assay type: cell-based; set-up: expressed in transfected cells; host or cells: NIH3T3-AXL cl.7 (pLXSN-hAXL) and NCI-H292 lung cancer cells (endogenous AXL); settings: 10 μg/ml antibody, 400 ng/ml Gas6; NIH3T3-AXL cl.7 fibroblasts and NCI-H292 lung cancer cells
T1 sequence (P30530 26-894): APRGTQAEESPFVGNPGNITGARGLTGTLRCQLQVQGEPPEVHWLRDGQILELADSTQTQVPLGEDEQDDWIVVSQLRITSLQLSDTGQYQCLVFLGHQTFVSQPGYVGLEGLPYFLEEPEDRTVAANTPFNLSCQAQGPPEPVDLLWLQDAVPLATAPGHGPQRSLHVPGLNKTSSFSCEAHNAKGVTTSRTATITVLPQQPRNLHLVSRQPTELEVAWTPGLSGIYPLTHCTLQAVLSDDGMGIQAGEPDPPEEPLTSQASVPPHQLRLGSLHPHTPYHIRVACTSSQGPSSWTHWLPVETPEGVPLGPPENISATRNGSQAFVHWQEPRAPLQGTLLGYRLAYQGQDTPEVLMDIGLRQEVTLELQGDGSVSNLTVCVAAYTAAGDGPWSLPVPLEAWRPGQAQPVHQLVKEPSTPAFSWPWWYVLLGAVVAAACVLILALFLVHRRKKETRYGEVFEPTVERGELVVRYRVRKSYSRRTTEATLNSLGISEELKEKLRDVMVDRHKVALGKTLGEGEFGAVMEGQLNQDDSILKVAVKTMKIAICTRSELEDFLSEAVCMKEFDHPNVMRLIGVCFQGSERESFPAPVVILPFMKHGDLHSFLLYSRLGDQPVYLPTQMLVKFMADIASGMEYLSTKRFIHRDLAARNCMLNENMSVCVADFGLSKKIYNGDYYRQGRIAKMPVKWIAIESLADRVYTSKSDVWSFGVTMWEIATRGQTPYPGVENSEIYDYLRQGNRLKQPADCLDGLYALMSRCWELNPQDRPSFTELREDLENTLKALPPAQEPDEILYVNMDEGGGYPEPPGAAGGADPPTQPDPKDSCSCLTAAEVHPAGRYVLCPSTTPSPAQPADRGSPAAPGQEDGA
Experimental: ELISA experiments were performed in order to investigate whether the rat anti-AXL antibodies of the invention are able to block ligand Gash-mediated activation of AXL. Gas6-mediated AXL activation was detected by increased receptor tyrosine phosphorylation. In brief, on day 1, 3×10^4 cells per well were seeded in normal growth medium in flat-bottom 96 well plates. The next day, growth medium was replaced by serum-free medium to starve cells over night for 24 h. Also over night, black Maxi-Sorp 96 well plates (Nunc) were coated with mouse anti-phospho-tyrosine antibody 4G10 at 2 μg/ml PBS and 4° C. On day 3, the 4G10 antibody solution was removed and Maxi-Sorp wells were blocked with PBS, 0.5% BSA for at lest 4 h at room temperature. […] Medium was then flicked out and cells were lysed in lysis buffer (50 mM HEPES, pH 7.5, 150 mM NaCl, 1 mM EDTA, 10% glycerine, and 1% Triton X-100) supplemented with phosphatase and protease inhibitors (10 mM Na4P2O7, 1 mM phenylmethylsulfonyl fluoride, 1 mM orthovanadate, 1 mM NaF, and 0.5% aprotinin) for 30 min on ice. […] Using a Victor plate reader (Perkin Elmer), the fluorescence of each well was collected at an excitation wavelength of 430 nm and an emission wavelength of 580 nm.

C-8161 melanoma cells = assay: Soft agar colony formation assay, combination with cisplatin; assay type: cell-based, human
Experimental: Soft agar assays were conducted in order to investigate the ability of anti-Axl antibodies of the invention to inhibit anchorage-independent cell growth either alone or in combination with chemotherapeutic agents. The soft agar colony formation assay is a standard in vitro assay to test for transformed cells, as only transformed cells are able to grow in soft agar.
In brief, 750 C-8161 melanoma cells either remained untreated or were pre-incubated with the antagonistic rat anti-Axl antibody 11B7 at 15 μg/ml in IMDM medium (Gibco) for 30 min at 37° C. Subsequently, cells were combined with Difco noble agar solution resulting in 50 μl of top agar cell suspension at concentrations of Agar, FCS, and 11B7 of 0.35%, 0.2%, and 7.5 μg/ml, respectively. This cell suspension was plated on top of 50 μl of a 0.7% agarose bottom layer containing 20% FCS, and was finally covered with another 50 μl of a feeding layer solution that contains 0.2% FCS as well as cisplatin in according concentrations. In the whole of 150 μl per sample, the final concentrations of 11B7 and cisplatin were 2.5 μg/ml and 1.5 μM, 1.0 μM, 0.75 μM, 0.5 μM, or 0.25 μM, respectively. Colonies were allowed to form for 5 days and were then stained with 50 μl MTT (Sigma, 1 mg/ml in PBS) for 3 hours at 37° C. Using a Scanalyzer HTS camera system in conjunction with the HTS Bonit colony formation software (Lemnatec, Wuerselen), the effect of the antagonistic rat anti-Axl antibody 11B7 in the absence or presence of cisplatin were analyzed in triplicates.

B1: 11B7: antagonistic rat anti-AXL monoclonal antibody, rat IgG1 (antibody, V domains shown)
VL: DIQMTQAPSSLPASLGDRVTITCRASQDIGNYLRWFQQKPGKSPRLMISGATNLAAGVPSRFSGSRSGSDYSLTISSLESEDMADYYCLQSKESPWTFGGGTKLELK
VH: EVQLQESGPGLVKPSQSLSLTCSVTGYSITSNYWGWIRKFPGDKMEWMGYITYSGSTSYNPSLKSRISITRDTSKNQFFLQLNSVTSEDTATYYCAITTFYYWGQGVMVTVSS
AXL
  ligand-mediated AXL activation (phosphorylation): able to block or reduce ligand-mediated AXL activation
C-8161 melanoma cells; 2.5 μg/ml 11B7 + 0.25 to 1.5 μM cisplatin, 5 days
  soft agar colony growth, combination with cisplatin: significantly potentiated inhibitory effect of cisplatin
C-8161 melanoma cells; 2.5 μg/ml 11B7, 5 days, overall area of colonies
  inhibitory effect on soft agar colony growth, antibody alone: ~30%
